Results from patent publication US20110166062A1 (INDIANA UNIVERSITY RESEARCH AND TECHNOLOGY, published 2011).
*1 amine or outer side, *2 acyl side, *3 side chain or, on linkers, in order; H or OH if unused. Bridges are numbered along the chain shown (N, C = ends). Primed or numbered codes have the meaning given here. Where no end group is shown, it is not given here. Side-chain parts run from the residue outwards. [ ]: non-standard residue; d: D form. The star is where a group is joined. Cys(PEG 40 kDa) = Cys with a 40 kDa PEG covalently attached to its side chain (alpha amino acetyl-capped, Ac); PEG 40 kDa″ = polyethylene glycol of 40 kDa covalently attached to the side chain; γGlu = O=C(O)[C@H](CCC(=O)[*:2])N[*:1]; Palmitoyl = CCCCCCCCCCCCCCCC(=O)*; Myristoyl = CCCCCCCCCCCCCC(=O)*; PEG = not defined here; Aib = CC(C)(N)C(=O)O

Columns and labels:
Test in all cases: cell-based or functional assay
GIP receptor [1] = target: T1, GIP receptor (UniProt P48546 22-466)
T1 sequence (looked up): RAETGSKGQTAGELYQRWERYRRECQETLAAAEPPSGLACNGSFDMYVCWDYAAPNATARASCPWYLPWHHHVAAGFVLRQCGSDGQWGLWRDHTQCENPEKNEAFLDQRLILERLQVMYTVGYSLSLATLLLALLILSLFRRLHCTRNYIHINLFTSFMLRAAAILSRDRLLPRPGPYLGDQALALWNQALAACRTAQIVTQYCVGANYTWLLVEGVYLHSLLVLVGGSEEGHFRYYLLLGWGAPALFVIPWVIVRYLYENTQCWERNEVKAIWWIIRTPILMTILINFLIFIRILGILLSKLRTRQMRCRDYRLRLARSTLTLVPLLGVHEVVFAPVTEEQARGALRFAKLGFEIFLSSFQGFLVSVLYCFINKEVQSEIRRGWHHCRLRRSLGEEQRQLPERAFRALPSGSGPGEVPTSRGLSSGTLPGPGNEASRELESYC

glucagon receptor [2] = target: glucagon receptor (UniProt P47871 26-477, limits assumed)
Target sequence in this assay (P47871 26-477 limits assumed): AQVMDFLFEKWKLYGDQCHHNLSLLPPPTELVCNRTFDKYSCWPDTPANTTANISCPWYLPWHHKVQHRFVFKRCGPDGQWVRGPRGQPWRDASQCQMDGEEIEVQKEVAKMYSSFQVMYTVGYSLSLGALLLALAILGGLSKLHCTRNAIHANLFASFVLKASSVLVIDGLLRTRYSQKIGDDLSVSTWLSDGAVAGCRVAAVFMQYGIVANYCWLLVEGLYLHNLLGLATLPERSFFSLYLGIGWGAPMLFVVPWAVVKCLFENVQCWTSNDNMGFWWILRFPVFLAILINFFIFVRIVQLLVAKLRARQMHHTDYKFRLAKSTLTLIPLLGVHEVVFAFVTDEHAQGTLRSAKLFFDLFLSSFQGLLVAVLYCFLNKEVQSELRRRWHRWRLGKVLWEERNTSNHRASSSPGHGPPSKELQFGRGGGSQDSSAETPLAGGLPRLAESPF

GLP-1 receptor [3] = target: GLP-1 receptor (UniProt P43220 24-463, limits assumed)
glucagon receptor [4] = target: glucagon receptor (UniProt P47871 26-477, limits assumed); remark: listed apart in the source
Target sequence in this assay (P47871 26-477 limits assumed): as above

GIP receptor [5] = target: T2, GIP receptor (UniProt P48546 22-466); remark: listed apart in the source
T2 sequence (looked up): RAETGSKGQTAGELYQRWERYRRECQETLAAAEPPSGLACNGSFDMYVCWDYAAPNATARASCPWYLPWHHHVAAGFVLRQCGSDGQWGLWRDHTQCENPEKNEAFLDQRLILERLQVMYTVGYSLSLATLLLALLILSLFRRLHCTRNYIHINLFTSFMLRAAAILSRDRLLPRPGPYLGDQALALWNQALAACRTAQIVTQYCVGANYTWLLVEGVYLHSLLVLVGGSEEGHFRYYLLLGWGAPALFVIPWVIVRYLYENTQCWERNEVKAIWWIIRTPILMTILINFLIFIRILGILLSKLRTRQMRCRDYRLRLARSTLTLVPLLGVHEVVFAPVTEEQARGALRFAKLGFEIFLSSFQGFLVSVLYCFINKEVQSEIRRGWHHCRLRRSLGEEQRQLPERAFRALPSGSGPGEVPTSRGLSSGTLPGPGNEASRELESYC

GLP-1 receptor [6] = target: GLP-1 receptor (UniProt P43220 24-463, limits assumed); remark: listed apart in the source

Binder	EC50, nM; GIP Receptor (GIP receptor [1])	relative activity; GIP Receptor (GIP receptor [1])	EC50, nM; Glucagon Receptor (glucagon receptor [2])	relative activity; Glucagon Receptor (glucagon receptor [2])	EC50, nM; GLP-1 Receptor (GLP-1 receptor [3])	relative activity; GLP-1 Receptor (GLP-1 receptor [3])	EC50 (glucagon receptor [4])	relative activity (glucagon receptor [4])	EC50 (GIP receptor [5])	relative activity (GIP receptor [5])	EC50 (GLP-1 receptor [6])	relative activity (GLP-1 receptor [6])
Y[Aib]QGTFISDYSIYLDKQAA[Aib]EFVNWLLAGGPSSGAPPPSK(Palmitoyl)-NH2 (N-terminus assumed; SMILES CCCCCCCCCCCCCCCC(=O)NCCCC[C@H](NC(=O)[C@H](CO)NC(=O)[C@@H]1CCCN1C(=O)[C@@H]1CCCN1C(=O)[C@@H]1CCCN1C(=O)[C@H](C)NC(=O)CNC(=O)[C@H](CO)NC(=O)[C@H](CO)NC(=O)[C@@H]1CCCN1C(=O)CNC(=O)CNC(=O)[C@H](C)NC(=O)[C@H](CC(C)C)NC(=O)[C@H](CC(C)C)NC(=O)[C@H](Cc1c[nH]c2ccccc12)NC(=O)[C@H](CC(N)=O)NC(=O)[C@@H](NC(=O)[C@H](Cc1ccccc1)NC(=O)[C@H](CCC(=O)O)NC(=O)C(C)(C)NC(=O)[C@H](C)NC(=O)[C@H](C)NC(=O)[C@H](CCC(N)=O)NC(=O)[C@H](CCCCN)NC(=O)[C@H](CC(=O)O)NC(=O)[C@H](CC(C)C)NC(=O)[C@H](Cc1ccc(O)cc1)NC(=O)[C@@H](NC(=O)[C@H](CO)NC(=O)[C@H](Cc1ccc(O)cc1)NC(=O)[C@H](CC(=O)O)NC(=O)[C@H](CO)NC(=O)[C@@H](NC(=O)[C@H](Cc1ccccc1)NC(=O)[C@@H](NC(=O)CNC(=O)[C@H](CCC(N)=O)NC(=O)C(C)(C)NC(=O)[C@@H](N)Cc1ccc(O)cc1)[C@@H](C)O)[C@@H](C)CC)[C@@H](C)CC)C(C)C)C(N)=O) [mt-358]	0.0045 nM	306%	0.0087 nM	1270%	0.083 nM	13%	–	–	–	–	–	–
Y[Aib]QGTFTSDYSIYLD[Aib]QAAKEFVNWLLAGGPSSGAPPPSC-NH2 (N-terminus assumed; SMILES CC[C@H](C)[C@H](NC(=O)[C@H](CO)NC(=O)[C@H](Cc1ccc(O)cc1)NC(=O)[C@H](CC(=O)O)NC(=O)[C@H](CO)NC(=O)[C@@H](NC(=O)[C@H](Cc1ccccc1)NC(=O)[C@@H](NC(=O)CNC(=O)[C@H](CCC(N)=O)NC(=O)C(C)(C)NC(=O)[C@@H](N)Cc1ccc(O)cc1)[C@@H](C)O)[C@@H](C)O)C(=O)N[C@@H](Cc1ccc(O)cc1)C(=O)N[C@@H](CC(C)C)C(=O)N[C@@H](CC(=O)O)C(=O)NC(C)(C)C(=O)N[C@@H](CCC(N)=O)C(=O)N[C@@H](C)C(=O)N[C@@H](C)C(=O)N[C@@H](CCCCN)C(=O)N[C@@H](CCC(=O)O)C(=O)N[C@@H](Cc1ccccc1)C(=O)N[C@H](C(=O)N[C@@H](CC(N)=O)C(=O)N[C@@H](Cc1c[nH]c2ccccc12)C(=O)N[C@@H](CC(C)C)C(=O)N[C@@H](CC(C)C)C(=O)N[C@@H](C)C(=O)NCC(=O)NCC(=O)N1CCC[C@H]1C(=O)N[C@@H](CO)C(=O)N[C@@H](CO)C(=O)NCC(=O)N[C@@H](C)C(=O)N1CCC[C@H]1C(=O)N1CCC[C@H]1C(=O)N1CCC[C@H]1C(=O)N[C@@H](CO)C(=O)N[C@@H](CS)C(N)=O)C(C)C) [mt-241]	–	–	–	–	–	–	2.84 nM	3.73%	0.252 nM	4.37%	0.023 nM	130%
Y[Aib]EGTFTSDYSIYLDKQAA[Aib]EFVNWLLAGGPSSGAPPPSK(Myristoyl)C-NH2 (also: homodimer: two monomers linked by a disulfide bond between their C-terminal Cys41 residues) [mt-354]	0.0046 nM	91.7%	2.61 nM	1.45%	0.0088 nM	137%	–	–	–	–	–	–
Y[Aib]EGTFTSDYSIYLDEQAAKEFVNWLLAGGPSSGAPPPSC(PEG)-NH2 (lactam 16-20; reading uncertain; also: PEG on Cys40 via thioether from haloacetyl) [mt-294]	0.373 nM	2.95%	230 nM	0.01%	0.0608 nM	12.7%	–	–	–	–	–	–
Y[Aib]QGTFTSDYSIYLDEQAAKEFVNWLLAGGPSSGAPPPSK([Ala-Cys(PEG 40 kDa)-Ac])-NH2 (lactam 16-20) [mt-225]	1.9 nM	–	2.71 nM	–	0.098 nM	–	–	–	–	–	–	–
Y[Aib]QGTFTSDYSIYLD[Aib]QAAKEFVNWLLAGGPSSGAPPPSC(PEG 40 kDa″)-NH2 [mt-248]	–	–	–	–	–	–	16.7 nM	0.37%	3.23 nM	0.53%	0.103 nM	9.71%
Y[Aib]EGTFTSDYSIYLDKQAA[Aib]EFVNWLLAGGPSSGAPPPSK([γGlu-γGlu-Palmitoyl])-NH2 [mt-367]	0.0014 nM	–	0.82 nM	–	0.0039 nM	–	–	–	–	–	–	–
Y[Aib]QGTFISDYSIYLDKQAA[Aib]EFVNWLLAGGPSSGAPPPSK-NH2 (N-terminus assumed; SMILES CC[C@H](C)[C@H](NC(=O)[C@H](CO)NC(=O)[C@H](Cc1ccc(O)cc1)NC(=O)[C@H](CC(=O)O)NC(=O)[C@H](CO)NC(=O)[C@@H](NC(=O)[C@H](Cc1ccccc1)NC(=O)[C@@H](NC(=O)CNC(=O)[C@H](CCC(N)=O)NC(=O)C(C)(C)NC(=O)[C@@H](N)Cc1ccc(O)cc1)[C@@H](C)O)[C@@H](C)CC)C(=O)N[C@@H](Cc1ccc(O)cc1)C(=O)N[C@@H](CC(C)C)C(=O)N[C@@H](CC(=O)O)C(=O)N[C@@H](CCCCN)C(=O)N[C@@H](CCC(N)=O)C(=O)N[C@@H](C)C(=O)N[C@@H](C)C(=O)NC(C)(C)C(=O)N[C@@H](CCC(=O)O)C(=O)N[C@@H](Cc1ccccc1)C(=O)N[C@H](C(=O)N[C@@H](CC(N)=O)C(=O)N[C@@H](Cc1c[nH]c2ccccc12)C(=O)N[C@@H](CC(C)C)C(=O)N[C@@H](CC(C)C)C(=O)N[C@@H](C)C(=O)NCC(=O)NCC(=O)N1CCC[C@H]1C(=O)N[C@@H](CO)C(=O)N[C@@H](CO)C(=O)NCC(=O)N[C@@H](C)C(=O)N1CCC[C@H]1C(=O)N1CCC[C@H]1C(=O)N1CCC[C@H]1C(=O)N[C@@H](CO)C(=O)N[C@@H](CCCCN)C(N)=O)C(C)C) [mt-357]	0.0066 nM	206%	0.042 nM	261%	1.25 nM	0.86%	–	–	–	–	–	–
